Measured values from US20140154252A1.

Experiments:
CD37 (human) [1] = target: T1, CD37 (human) (UniProt P11049); assay: competition flow cytometry on Ramos B-cells; competitor FITC anti-CD37 antibody [lower graph (Detection of FITC-CD37 mAb]
T1 sequence (looked up): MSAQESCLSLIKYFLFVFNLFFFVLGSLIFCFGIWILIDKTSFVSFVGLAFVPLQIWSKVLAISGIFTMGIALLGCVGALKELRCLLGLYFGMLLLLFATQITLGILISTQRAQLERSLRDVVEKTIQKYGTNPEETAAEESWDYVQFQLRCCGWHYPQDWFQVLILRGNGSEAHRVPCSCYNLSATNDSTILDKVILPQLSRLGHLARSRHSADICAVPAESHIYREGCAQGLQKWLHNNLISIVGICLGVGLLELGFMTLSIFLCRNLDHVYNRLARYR

CD20 (human) [2] = target: CD20 (human) (UniProt P11836); assay: competition flow cytometry on Ramos B-cells; competitor PE anti-CD20 antibody [upper graph (Detection of PE-CD20 mAb]
Chain of CD20 (human) (P11836 whole entry): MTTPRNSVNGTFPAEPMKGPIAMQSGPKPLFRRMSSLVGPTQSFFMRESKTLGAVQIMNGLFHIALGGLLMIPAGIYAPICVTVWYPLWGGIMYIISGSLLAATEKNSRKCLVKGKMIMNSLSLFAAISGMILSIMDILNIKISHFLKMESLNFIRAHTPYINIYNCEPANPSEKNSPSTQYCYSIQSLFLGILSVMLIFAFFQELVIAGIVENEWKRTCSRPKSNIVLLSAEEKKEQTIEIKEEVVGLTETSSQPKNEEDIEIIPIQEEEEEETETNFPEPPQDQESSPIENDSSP

CD20 (human) [3] = target: CD20 (human) (UniProt P11836); assay: cell-based or functional assay
CD37 (human) [4] = target: T1, CD37 (human); assay: cell-based or functional assay

IC50 (read off the curve) (CD37 (human) [1]): 2000 pM
IC50 (read off the curve) (CD20 (human) [2]): 5000 pM
IC50 (nM), direct growth inhibition of DoHH2 cells, 96 h, ATP detection (CD20 (human) [3]): 0.05 nM
IC50 (nM), direct growth inhibition of SU-DHL-6 cells, 96 h, ATP detection (CD20 (human) [3]): 0.05 nM
IC50 (nM), direct growth inhibition of DoHH2 cells, 96 h, ATP detection (CD37 (human) [4]): 0.05 nM
IC50 (nM), direct growth inhibition of SU-DHL-6 cells, 96 h, ATP detection (CD37 (human) [4]): 0.05 nM
Substance: CD20×CD37 bispecific scorpion (015×016) (bispecific antibody)
